Test results taken from publication PMC5547543.
Where two headings read alike, the source gives them in different places.

What was measured:
Hck (2PA-YEEI) [1] = target: Hck (2PA-YEEI) (UniProt P08631); experiment: SPR; Hck (2PA-YEEI) amine-coupled (EDC/NHS) to a CMD 500 carboxymethyl dextran chip, 6053 RU, BIAcore 2000; Csk, Chk, Chk mutants and chimera as analytes in HBS (10 mM HEPES pH 7.4, 150 mM NaCl, 3.4 mM EDTA, 0.005% Tween 20); global fit to a 1 to 1 model with mass transfer; molecular binding activity from the maximum response
Hck (2PA-YEEI) [2] = target: Hck (2PA-YEEI) (UniProt P08631); experiment: as above; remark: listed apart in the source

Sequence of C-terminal Src kinase (Csk), recombinant (P41240 whole entry): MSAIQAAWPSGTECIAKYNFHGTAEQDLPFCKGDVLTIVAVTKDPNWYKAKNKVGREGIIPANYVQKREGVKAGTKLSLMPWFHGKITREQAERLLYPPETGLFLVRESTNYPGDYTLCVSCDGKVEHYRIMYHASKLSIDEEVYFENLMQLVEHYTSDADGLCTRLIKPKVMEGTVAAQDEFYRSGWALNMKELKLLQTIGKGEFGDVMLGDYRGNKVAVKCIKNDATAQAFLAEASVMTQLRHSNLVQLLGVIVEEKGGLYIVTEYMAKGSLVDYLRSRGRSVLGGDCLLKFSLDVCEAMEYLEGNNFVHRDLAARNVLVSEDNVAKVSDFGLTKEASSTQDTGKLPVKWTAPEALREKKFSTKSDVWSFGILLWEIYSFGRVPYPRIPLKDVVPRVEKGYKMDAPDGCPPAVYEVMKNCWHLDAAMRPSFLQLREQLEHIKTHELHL

Substance | Kd (Hck (2PA-YEEI) [1]) | Kd (Hck (2PA-YEEI) [2]) | koff (Hck (2PA-YEEI) [2]) | kon (Hck (2PA-YEEI) [2]) | molecular binding activity (MBA) at 2.7 μM Csk (Hck (2PA-YEEI) [2]; scale: mol of analyte bound per mol of immobilized Hck) | fold reduction of kon against wild type Chk (Hck (2PA-YEEI) [2])
C-terminal Src kinase (Csk), recombinant (from UniProt P41240 1-450) (enzyme) | 13 µM | 13.1 µM | 0.0077 s⁻¹ | 588 M⁻¹ s⁻¹ | 0.01 | 
Chk (R382A) (from UniProt P42679-2 1-508) (enzyme) | 0.227 µM |  |  |  |  | 3 fold
Chk (K387A) (from UniProt P42679-2 1-508) (enzyme) | 0.295 µM |  |  |  |  | 3 fold
Csk-Chk chimera (from UniProt P41240 1-181; P42679 235-482) (enzyme) |  |  | 0.00031 s⁻¹ | 243 M⁻¹ s⁻¹ |  | 
